From US20100209426A1, “INHIBITORS OF PROGASTRIN-INDUCED REPRESSION OF ICAT FOR TREATING AND/OR PREVENTING COLORECTAL CANCER, ADENOMATOUS POLYPOSIS OR METASTASIS DISPLAYING PROGASTRIN-SECRETING CELLS AND CELLS IN WHICH THE BETA-CATENIN/TCF-MEDIATED TRANSCRIPTIONAL PATHWAY IS CONSTITUTIVELY ACTIVE” (INSERM (INSTITUT NATIONAL DE LA SANTE ET DE LA REC HERCHE …, priority 2006, published 2010) come the findings set out here.

Where no end group is shown, it is not given here.

Series [1] concerns β-catenin/Tcf-4 transcriptional activity. Put plainly: TOP/FOP Luciferase reporter gene assay in SW480 cells. The class given is cell-based. How it is done:
The protocol used to measure the transcriptional activity of TCF/LEF-1 was described before (Morin et al., 1997). Briefly, cells were transfected with 500 ng of TCF/LEF-1 reporter (pTOP-FLASH), or control vector (pFOP-FLASH) and with 25 ng pCMV-Renilla. Luciferase activity was quantified using the Dual luciferase reporter assay system (Promega), and was normalized relative to the activity of Renilla.

For series [2], the system named is SW480 cells. Nature of the series: Differentiation and apoptosis of SW480 cells after transient siRNA transfection. The class given is cell-based, human. The method, then: The day before transfection, SW480 cells were seeded in 24-well plates (5×10^4 cells/well). Cells were transfected with 100 pmol of rhodamine tagged GAS-specific or β-galactosidase-specific […], and 5 μl/well of Exgen 500 (Euromedex), according to the manufacturer's instructions. 48 hr or 72 hr after transfection, cells were lysed (for immunoblotting and PCR) or fixed in 1% paraformaldehyde for immunostaining.
2.5 μg of total RNA was pretreated with DNAse RQ1 (Promega) for 30 min at 37° C. and used for reverse transcription with M-MLV reverse transcriptase (In vitrogen). Quantitative PCR was carried out using the LightCycler FastStart DNA MasterPlus SYBR Green I kit (Roche Diagnostics, Meylan, France), under the following conditions: Actin: denaturation during 10 min at 95° C., amplification for 50 cycles: 10 sec at 95° C., 6 sec at 58° C., 11 sec at 72° C. Melting curve: 0 sec at 95° C., 30 sec at 68° C., 0 sec at 95° C. and cooling was for 2 min at 40° C.: c-myc, ILK, chromogranin A and GAPDH amplification: denaturation during 10 min at 95° C., amplification for 50 cycles: 10 sec at 70° C., 6 sec at 58° C., 13 sec at 72° C. The melting curve was 0 sec at 95° C., 30 sec at 80° C., 0 sec at 95° C. and cooling was for 2 min at 40° C. Progastrin, Muc-2, ALP and ICAT amplification: denaturation during 10 min at 95° C., amplification during 50 cycles with: 10 sec at 70° C., 6 sec at 95° C., 11 sec at 72° C. The melting curve was 0 sec at 95° C., 30 sec at 80° C., 0 sec at 70° C. and cooling was for 2 min at 40° C. Primers used for amplification of selected genes were: GAPDH-sense: 5′[…]3′ (SEQ ID No 9) antisense: 5′[…]3′ (SEQ ID No 10); Actin-sense: 5′[…]3′ (SEQ ID No 11); antisense: 5′[…]3′ (SEQ ID No 12); ILK-sense: 5′[…]3′ (SEQ ID No 13); antisense: 5′ […]3′ (SEQ ID No 14); ICAT-sense: 5′[…]3′ (SEQ ID No 15); antisense: 5′[…]3′ (SEQ ID No 16); c-myc-sense: 5′[…]3′ (SEQ ID No 17); antisense: 5′[…]3′ (SEQ ID No 18); human progastrin-sense: 5′[…]3′ (SEQ ID No 19); antisense: 5′[…]3′ (SEQ ID No 20); Muc-2-sense: 5′[…]3′ (SEQ ID No 21); antisense: 5′[…]3′ (SEQ ID No 22); Alkaline Phosphatase-sense: 5′[…]3′ (SEQ ID No 23); antisense: 5′[…]3′ (SEQ ID No 24); Chromogranin A-sense: 5′[…]3′ (SEQ ID No 25); antisense: 5′[…]3′ (SEQ ID No 26).
(§1) Immunofluorescent staining was performed as described previously (Hollande et al., 2003) Slides were then observed using a laser scanning LEICA sp2 confocal microscope with a x40 oil immersion lens.

The next series has as its system ICAT. Nature of the series: ICAT expression in SW480 cells (RT-QPCR, immunoblotting). The class given is cell-based, human. The method, then:
(§2) 2.5 μg of total RNA was pretreated with DNAse RQ1 (Promega) for 30 min at 37° C. and used for reverse transcription with M-MLV reverse transcriptase (In vitrogen). Quantitative PCR was carried out using the LightCycler FastStart DNA MasterPlus SYBR Green I kit (Roche Diagnostics, Meylan, France), under the following conditions: Actin: denaturation during 10 min at 95° C., amplification for 50 cycles: 10 sec at 95° C., 6 sec at 58° C., 11 sec at 72° C. Melting curve: 0 sec at 95° C., 30 sec at 68° C., 0 sec at 95° C. and cooling was for 2 min at 40° C.: c-myc, ILK, chromogranin A and GAPDH amplification: denaturation during 10 min at 95° C., amplification for 50 cycles: 10 sec at 70° C., 6 sec at 58° C., 13 sec at 72° C. The melting curve was 0 sec at 95° C., 30 sec at 80° C., 0 sec at 95° C. and cooling was for 2 min at 40° C. Progastrin, Muc-2, ALP and ICAT amplification: denaturation during 10 min at 95° C., amplification during 50 cycles with: 10 sec at 70° C., 6 sec at 95° C., 11 sec at 72° C. The melting curve was 0 sec at 95° C., 30 sec at 80° C., 0 sec at 70° C. and cooling was for 2 min at 40° C. […]
(§3) Protein lysates, immunoprecipitations and immunoblotting were performed as described before (Hollande et al., 2003) Proteins were visualized using ECL Plus (Amersham Biosciences) and the bands were quantified by densitometry using ImageJ 1.32J (NIH, Bethesda, Md.).

The test system of series [3] is Tcf-4 target genes (c-myc, cyclin D1, Sox-9 and claudin-1). Nature of the series: Expression of Tcf-4 target genes in SW480/GAST(−) cells. The class given is cell-based, human. The note with it: progastrin-depleted SW480/GAST(−) cells, treatment with the recombinant peptide (5 nM, 72 h). How it is done:
as §2, §3

In series [4] the test system is β-catenin/Tcf-4 and β-catenin/ICAT association. Put plainly: Co-immunoprecipitation of dephosphorylated β-catenin with Tcf-4 and ICAT in SW480 cells. Format: cell-based, human. The following applies: SW480/GAST(−) cells treated with recombinant progastrin. How it is done: as §3
Series [5] deals with nuclear compartmentation of β-catenin and Tcf-4. Nature of the series: Immunofluorescent staining of β-catenin and Tcf-4 in SW480 cells. The class given is cell-based, human. The note with it: SW480/GAST(−) cells, 5 nM recombinant progastrin. How it is done:
as §1

The test system of a further series is Akt/PKB. Nature of the series: Ser473 phosphorylation of Akt/PKB in SW480 cells (Western blotting). Format: cell-based, human. The note with it: SW480/GAST(−) cells, 5 nM recombinant progastrin. How it is done:
as §3

The subject of another series is ILK. Nature of the series: ILK expression and immune complex kinase assay in SW480 cells. The class given is cell-based, human. The note with it: SW480/GAST(−) cells, 5 nM recombinant progastrin. How it is done: as §3
The reaction was started by the addition of 25 μl of kinase buffer (50 mM Hepes pH 7.0, 1 mM MnCl2, 1 mM Na orthovanadate, 2 mM NaF, 5 μg Myelin Basic Protein (Sigma)) with 0.5 μg of ATP ([…], 1 μCi[γ-^32P]ATP) per tube, and incubated at 30° C. for 20 min. The reaction was terminated with the addition of 10 μl of 4× sample buffer. The tubes were centrifuged at 10,000 g for 1 min and the proteins were resolved on a 14% SDS-page gel. Phosphorylation of the substrate was visualized by autoradiography (Marotta et al., 2003).

Series [6] relates to SW480 cells. Put plainly: Tumor formation of SW480 cells injected subcutaneously in BALB/c nude mice. The class given is in vivo, mouse. The note with it: SW480/GAST(−) cells stably expressing shRNA, subcutaneous injection in Balbc/nude mice, within 7 weeks, versus SW480/βgal(−). An excerpt: Transfection of gastrin gene antisense and control cDNA into DLD1 cell lines was described in (Hollande et al., 2003). In order to generate progastrin shRNA, the following oligonucleotides were cloned into pSilencer vector (Ambion) and transfected in SW480 cells: sense: 5′-[…] TT-3′ (SEQ ID No 1) and antisense: 5′-[…] 3′ (SEQ ID No 2). β-galactosidase oligonucleotides used to generate control shRNA were: sense: 5′ […] 3′ (SEQ ID No 3); antisense 5′[…] 3′ (SEQ ID No 4). 5×10^4 cells/well were seeded and transfected 24 h later with 500 ng of pSilencer/progastrin-shRNA or pSilencer/β-galactosidase-shRNA, 50 ng of pcDNA-3, and 5 μl/well of Exgen 500 (Euromedex). Selection was performed with Neomycin (500 ng/μl).
In vivo experiments were performed following the French guidelines for experimental animal studies (Direction des Services Vétérinaires, Ministére de l'Agriculture, Agreement N^oB34-172-27) and fulfill the UKCCCR guidelines for the welfare of animals in experimental neoplasia. 2×10^6 cells were injected subcutaneously into 6-weeks-old athymic BALB/c-nu/nu (nude) mice. Tumor growth was followed regularly thereafter (Estimated tumor volume=(Length×width×thickness)/2).

Where [7] appears, read: treatment of CRC cells with short gastrin forms or CCK-B receptor antagonist (FIG. S2).
[8] abbreviates: amidated and glycine-extended gastrins.
[9] abbreviates: transient transfection with siRNA.

As to `Cc1cccc(NC(=O)N[C@@H]2N=C(c3ccccc3)c3ccccc3N(C)C2=O)c1` [L365, 260], in series [1] (setting [7]), the β-catenin/Tcf-4 activity result is given as “did not affect”.

Regarding “amidated gastrin17: COOH terminally amidated gastrin, maturation product of progastrin (QGPWLEEEEEAYGWMDF-NH2; ends and bridges not checked) [reference compound]”, the β-catenin/Tcf-4 activity result in series [1] (setting [7]) is given as “did not affect”. In addition, the “differentiation and apoptosis phenotypes of GAST siRNA-transfected cells” value (shortened to “differentiation and apoptosis phenotypes”) in the series on SW480 cells [2] (setting [8]) is listed as “had no effect”.

Consider `COc1cccc(-c2cc(=O)c3ccccc3o2)c1N` [PD98059], for which, in series [1] (SW480 cells, 1 μM PD98059 (ERK1/2 pathway inhibition)), the β-catenin/Tcf-4 activity result is listed as “did not affect”. In the series with ICAT (SW480 cells, 1 μM PD98059), the ICAT expression result is given as “did not affect”.

For “GAST-specific siRNA oligonucleotides: rhodamine-tagged siRNA directed against the human GAST gene; siRNAs hPG sense 5′-GAAGAAGCCUAUGGAUGGATT-3′ (SEQ ID No 27), antisense SEQ ID No 28 (antisense UCCAUCCAUAGGCUUCUUCTT; rhodamine-tagged siRNA, tag position not given here)”, in the series with SW480 cells [2] (setting [9]), the caspase-3 activation entry is “detection of caspase-3 activation” and the “expression of genes encoding chromogranin A or enterocyte-specific alkaline phosphatase” value is listed as “without detectable alterations”. Moreover, in the series on SW480 cells [2] (transient transfection with siRNA, versus β-galactosidase siRNA), the “expression of the goblet cell-specific gene Muc-2” value is “significant induction”.

For `CC(C)(C)n1nc(-c2ccc(Cl)cc2)c2c(N)ncnc21` [PP2], in series [1] (SW480 cells, 10 μM PP2 (Src pathway inhibition)), the β-catenin/Tcf-4 activity result is “did not affect”. For the same molecule, the ICAT expression result in the series with ICAT (SW480 cells, 10 μM PP2) is “did not affect”.

B1: recombinant progastrin: full-length progastrin (1-80) prohormone encoded by the GAST gene; recombinant peptide or secreted by CRC cells (protein)
chain: SWKPRSQQPDAPLGTGANRDLELPWLEQQGPASHHRRQLGPQGPPHLVADPSKKQGPWLEEEEEAYGWMDFGRRSAEDEN
As to B1, the “expression of Tcf-4 target genes (c-myc, cyclin D1, Sox-9 and claudin-1)” value in series [3] is on record as “significantly stimulated”. In addition, the “β-catenin/Tcf-4 transcriptional activity (TOP/FOP luciferase reporter)” value in series [1] (SW480/GAST(−) clones, 5 nM recombinant progastrin, 72 h) is “restore a strong level of transcription”. The “differentiation and apoptosis phenotypes” value in the series with SW480 cells [2] (recombinant progastrin for 48 h) is listed as “reversed”. Also, in [4], the “binding partner of β-catenin (Tcf-4 versus ICAT)” value is “preferentially bound to Tcf-4”. In addition, in series [5], the “nuclear compartmentation of β-catenin and Tcf-4” value was “partially restored”. The “serine 473-phosphorylation of Akt/PKB” value in the series on Akt/PKB is “reinstated”. In the series on ICAT (SW480/GAST(−) cells, 5 nM recombinant progastrin), the ICAT expression result is recorded as “De novo repression”. For the same molecule, the “decrease of expression and activity of ILK” value in the series with ILK is listed as “partially reversed”.

B2: glycine-extended gastrin17: glycine-extended gastrin, one of the products of progastrin maturation (peptide)
peptide: SWKPRSQQPDAPLGTGANRDLELPWLEQQGPASHHRRQLGPQGPPHLVADPSKKQGPWLEEEEEAYGWMDFGRRSAEDEN
Consider B2, for which, in series [1] (setting [7]), the β-catenin/Tcf-4 activity entry is recorded as “did not affect”. In the series with SW480 cells [2] (setting [8]), the “differentiation and apoptosis phenotypes” value is recorded as “had no effect”.

B3: short hairpin RNA (shRNA), directed against the GAST gene: progastrin shRNA, oligonucleotides SEQ ID No 1 and SEQ ID No 2 cloned into pSilencer vector, stably expressed in SW480 cells (nucleic acid)
DNA 1: GAAGAAGCCTATGGATGGATTCAAGAGAAGGTAGGTATCCGAAGAAGTTTTTT
DNA 2: AATTAAAAAACTTCTTCGGATACCTACCTTCTCTTGAATCCATCCATAGGCTTCTTCGGCC
For the molecule B3, in the series with SW480 cells [6], the “ability to form tumors” value was “greatly reduced”.
